Laboratory results from publication PMC5916551.

Molecular target: Transforming growth factor β1 (TGFβ1) (human) (UniProt P01137)
Test: SPR

UniProt P01137, sequence (P01137 279-390): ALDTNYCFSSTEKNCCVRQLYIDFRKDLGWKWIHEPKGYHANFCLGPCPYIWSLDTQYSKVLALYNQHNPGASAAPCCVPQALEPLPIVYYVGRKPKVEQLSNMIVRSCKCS

**Q.** Which Kd does the source give for Metelimumab (CAT192 IgG4) (antibody) here?
**A.** Its Kd is 139 nM.
